B1: library; numbered along this chain (parent)
chain: MAAAGGARLLRAASAVLGGPAGRWLHHAGSRAGSSGLLRNRGPGGSAEASRSLSVSARARSSSEDKITVHFINRDGETLTTKGKVGDSLLDVVVENNLDIDGFGACEGTLACSTCHLIFEDHIYEKLDAITDEENDMLDLAYGLTDRSRLGCQICLTKSMDNMTVRVPETVADARQSIDVGKTS

Variants of: B1
Experiment: scaled log2 fold change in cell abundance, elesclomol vs control (0 = silent mean, 1 = nonsense mean) (scaled log2 ratio); higher = higher viability under elesclomol (loss of FDX1 cuproptosis function)
Conditions: glucose 10 mM
[1] = with ABC1 FDX1 KO, elesclomol 5 nM, 14 days
[2] = with HEK293T FDX1 KO, elesclomol 40 nM, 11 days
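Note: variant abundance is its share of total variant reads in each endpoint sample, from next-generation sequencing of the integrated ORF PCR-amplified out of genomic DNA.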

Variant	scaled log2 fold change [1]	scaled log2 fold change [2]
C152R	1.08	1.5
C152S	1.17	1.18
C152M	1.16	0.861
G44I	0.034	0.323
G44Q	0.137	0.433
G44M	0.13	0.703
T109G	0.318	0.43
P43D	-0.289	-0.259
P43A	-0.0498	1.29
P43R	0.273	0.259
V69P	1.29	0.484
V69R	1.13	0.458
V69C	0.189	0.782
A141I	-0.168	0.617
A172H	-0.391	0.0671
K82R	-0.619	-0.611
V92M	-0.0956	0.391
T145H	-0.157	-0.272
T145S	0.00135	–
R74D	0.558	1.28
R74T	-0.0213	-0.108
R31M	0.66	–
R31W	-0.118	-0.246
L25W	0.28	0.019

Variant	scaled log2 fold change [1]	scaled log2 fold change [2]
E125T	-0.0928	0.0298
E125P	-0.165	0.0466
E125C	-0.817	0.0813
E125Y	-0.278	-0.0436
G45N	0.148	0.842
L79Q	-0.224	-0.128
L79W	-0.0916	0.138
A57Q	0.12	-0.354
D121L	-0.202	-0.00537
D121S	-0.507	–
D121T	-0.0111	–
Q153D	0.674	0.615
G42F	-0.0705	-0.21
E134A	0.628	0.137
L37Q	-0.0502	-0.659
L37F	0.0336	0.00175
D173Q	0.224	0.251
S52N	-0.0586	-0.095
M163N	0.51	0.528
M163K	0.823	0.16
I123V	-0.0405	–
I123K	0.336	0.365
I123W	-0.0593	-0.208
E120T	0.0538	-0.0827

Variant	scaled log2 fold change [1]	scaled log2 fold change [2]
A15M	-0.0208	0.445
D101C	-0.242	0.242
D101E	0.0987	-0.481
S148Y	0.363	-0.279
S148W	0.632	0.172
I178R	0.265	-0.46
I178C	0.576	-0.695
R175P	-0.117	0.128
R175D	0.148	1.25
E95L	-0.168	-0.709
E95I	0.142	-0.228
E95A	0.102	-0.337
A49D	0.201	–
A49I	0.653	1.22
A49T	0.0135	–
L89D	1.11	1.26
L89C	-0.261	0.257
N96H	0.245	–
V167I	-0.468	0.138
V167K	0.318	0.00856
V167A	-0.622	0.856
V167Q	0.218	1.05
A2F	0.0573	-0.164
A2H	0.1	0.132

Variant	scaled log2 fold change [1]	scaled log2 fold change [2]
A2R	0.187	0.489
A2C	0.441	0.0714
D132C	-0.0894	-0.0904
G181V	-0.396	–
G181I	0.268	0.0446
G102E	0.427	-0.163
G102I	0.0866	0.0202
I100K	0.223	0.128
I100Q	0.155	0.874
A105P	0.895	0.503
A111K	-0.155	0.541
L150K	1.24	1.51
N97R	-0.00904	–
S14W	-0.0995	-0.0707
S14A	0.422	0.495
V85F	0.217	1.05
V85N	-0.0121	0.0182
G151N	1.12	1.08
G151Y	1.15	1.08
T131E	0.357	-0.395
C115L	1.09	1.15
C115W	1.1	1.36
H70I	0.093	-0.0895
H70D	0.33	1.31

Variant	scaled log2 fold change [1]	scaled log2 fold change [2]
H70C	0.396	–
N135F	0.44	-0.599
N135G	0.0707	-0.645
R60S	0.275	0.216
R51N	-0.079	1.03
L110R	-0.0668	1.07
V93G	0.574	-0.293
S88L	0.0552	–
S88Q	0.191	-0.766
Q176K	0.426	0.463
Q176W	-0.225	0.328
Q176V	0.192	-0.626
S54L	-0.261	-0.248
R149S	0.96	0.508
L144R	0.343	0.505
L144T	0.135	-0.511
R166P	1.06	1.77
R166F	-0.233	0.799
R23W	0.348	0.553
V171S	-0.0546	0.136
R58V	0.434	1.47
R58Q	0.0532	-0.891
A12T	-0.00479	-0.247
A12Y	0.376	0.577

Variant	scaled log2 fold change [1]	scaled log2 fold change [2]
H122T	0.191	0.139
G83L	0.777	1.06
D65A	-0.0535	-0.237
N40E	0.118	–
N40I	0.554	-0.704
N40R	0.387	0.0477
N40C	-0.214	1.09
N40Q	-0.307	0.243
G19Q	0.00839	-0.000362
G19D	0.233	0.874
L90P	0.597	0.277
C155I	0.0211	-0.117
C155M	0.338	0.969
H27Y	-0.231	0.0795
I72K	0.155	-0.273
G6H	0.23	-1
G6Y	-0.0292	0.639
D75M	-0.0398	-0.59
E48T	0.74	-0.184
N162S	0.162	–
D87L	-0.301	-0.549
S63T	0.0678	-0.0954
S63G	0.283	0.000639
F119Q	0.852	0.755

Variant	scaled log2 fold change [1]	scaled log2 fold change [2]
F119V	-0.0745	1.48
D179P	-0.26	0.0267
D179F	-0.352	0.995
S159E	-0.499	-0.34
S159G	-1.03	-0.767
N73W	-0.0509	–
I130D	0.59	0.0795
I67L	0.113	0.514
E64D	0.0681	-0.0197
I118S	0.159	-0.594
L98V	-0.0512	-0.662
L98E	0.00205	0.172
L127Y	0.24	-0.426
G86A	0.349	0.0692
D91H	-0.00925	-0.865
D91E	-0.0305	1.04
D91Y	-0.0508	0.728
E133W	-1.03	0.0959
E133A	-0.216	1.27
E169A	0.277	-0.0328
T114Q	-0.112	0.0599
T114I	1.02	1.01
L17P	-0.107	–
R41P	-0.0791	-0.655

Variant	scaled log2 fold change [1]	scaled log2 fold change [2]
R11Q	0.24	0.0461
A59R	-0.761	-0.456
A59N	-0.132	0.117
P168Q	0.259	0.667
P168K	0.508	-0.335
P168C	0.163	0.254
P168W	0.463	0.286
K182L	-0.0698	0.171
K182F	0.103	-0.11
G33M	0.0509	-0.453
G33T	0.154	0.176
D139M	0.045	0.155
D161R	0.243	0.406
D161N	0.064	-0.539
G18M	0.0948	0.156
G18R	0.241	-0.618
G18H	0.0847	-0.242
D146A	0.0826	-0.539
S50N	0.219	-0.357
S50P	-0.659	–
S61G	-0.405	–
A13G	0.519	–
A13Q	0.0333	0.653
R8I	0.286	0.291

Variant	scaled log2 fold change [1]	scaled log2 fold change [2]
T170Y	0.0553	-0.221
T170G	0.233	-0.241
G5H	0.507	1.08
T68C	0.309	-0.148
T68L	0.248	0.885
H116N	-0.0564	-0.554
V165N	0.812	1.02
V165K	1.08	1.01
T81F	0.141	–
A174G	-0.324	0.643
S62L	0.0177	0.0918
S62G	-0.00606	0.141
D128Y	-0.45	0.0308
L117K	1.07	1.03
L117W	1.03	0.891
L117D	1.19	0.855
R39M	0.188	0.344
R39D	-0.217	1.07
G76T	0.217	–
L9P	0.629	0.0788
D136N	0.198	-0.651
A129K	-0.557	-0.17
A129P	0.272	0.0261
F71S	0.983	1.08

Variant	scaled log2 fold change [1]	scaled log2 fold change [2]
F71V	0.271	-0.215
F71K	1.18	1.46
A47Q	0.722	0.93
A47L	0.835	0.437
M160I	0.353	0.63
K158L	0.172	-0.122
K158D	0.233	0.95
S30M	0.423	-0.121
S30V	0.222	-0.701
S30T	-0.784	-0.554
E77C	-0.00193	-0.0101
A28E	0.301	-0.431
A28T	-0.152	–
T164P	0.508	-0.0295
T164V	0.342	1.31
L156F	0.599	-0.036
L156H	1.07	1.03
L156T	0.139	0.0718
L156E	1.11	1.53
L156K	1.05	1.71
L156R	1.06	1.1
L156Y	1.07	0.941

From the supplement of paper PMC12855868
